Paper PMC5548887

Molecular target: HHARI full-length (residues 1-557) (UniProt Q9Y4X5)
Assay: ITC; nanoITC, 25 °C, 50 mM NaCl, 10 mM Na2HPO4, 2 mM KH2PO4 pH 7.0; 200 μM UbcH7 proteins injected into 20 μM HHARI full length; 500 μM UbcH5b proteins into 50 μM HHARI full length

Chain of HHARI full-length (residues 1-557) (Q9Y4X5 whole entry, the tested form may be a part): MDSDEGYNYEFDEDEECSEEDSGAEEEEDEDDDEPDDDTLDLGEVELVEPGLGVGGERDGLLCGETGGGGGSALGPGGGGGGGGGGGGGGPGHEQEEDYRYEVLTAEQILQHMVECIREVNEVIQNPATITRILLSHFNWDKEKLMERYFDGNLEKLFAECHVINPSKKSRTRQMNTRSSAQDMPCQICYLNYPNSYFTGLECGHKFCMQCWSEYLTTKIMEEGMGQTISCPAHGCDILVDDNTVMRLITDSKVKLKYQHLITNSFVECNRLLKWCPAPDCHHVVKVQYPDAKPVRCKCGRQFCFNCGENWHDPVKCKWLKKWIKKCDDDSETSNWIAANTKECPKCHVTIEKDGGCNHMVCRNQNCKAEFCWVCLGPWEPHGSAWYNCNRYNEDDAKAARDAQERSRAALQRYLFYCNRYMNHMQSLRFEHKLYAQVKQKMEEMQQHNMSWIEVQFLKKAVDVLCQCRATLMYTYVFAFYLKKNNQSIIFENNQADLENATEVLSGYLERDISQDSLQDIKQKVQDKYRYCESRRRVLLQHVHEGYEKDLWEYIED
Chain of UbcH5b wild type (P62837 whole entry): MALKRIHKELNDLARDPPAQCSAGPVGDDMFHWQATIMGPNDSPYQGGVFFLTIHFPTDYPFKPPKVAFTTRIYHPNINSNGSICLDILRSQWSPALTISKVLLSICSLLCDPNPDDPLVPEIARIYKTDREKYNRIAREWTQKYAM

Kd: 19.5 µM
Substance: UbcH5b wild type (from UniProt P62837 1-147) (enzyme; other documents disagree on this pair)
